# Reference: patent US20140271653A1 (Regeneron, published 2014)
# Legend:
# [1] = target: T1, RSV-F of RSV subtype A strain A2 (1540) (respiratory syncytial virus subtype A, …, UniProt P03420 26-574); assay: cell-based or functional assay
# [2] = target: RSV-F of RSV subtype B strain 1A2 (respiratory syncytial virus subtype B, …); assay: cell-based or functional assay
# [3] = target: T2, RSV-F of RSV subtype B strain 9320 (respiratory syncytial virus subtype B, …); assay: cell-based or functional assay
# [4] = target: RSV-F of RSV subtype B strain 1400 (respiratory syncytial virus subtype B, …); assay: cell-based or functional assay
# [5] = target: T3, RSV-F of RSV subtype A strain Long (respiratory syncytial virus subtype A, …, UniProt P12568 26-574); assay: cell-based or functional assay
# [6] = target: RSV-F of RSV subtype B strain 18537 (respiratory syncytial virus subtype B, …, UniProt P13843 26-574); assay: cell-based or functional assay
# [7] = target: T1, RSV-F of RSV subtype A strain A2 (1540); assay: cell-based or functional assay; remark: listed apart in the source
# [8] = target: T1, RSV-F of RSV subtype A strain A2 (1540); assay: cell-based or functional assay; remark: listed apart in the source
# [9] = target: T3, RSV-F of RSV subtype A strain Long; assay: cell-based or functional assay; remark: listed apart in the source
# [10] = target: T4, RSV-F.mmh (Respiratory Syncytial Virus); assay: SPR (Biacore), mAb captured via Fc, soluble RSV-F.mmh injected, 25 C
# T4 construct: also called recombinant RSV-F; soluble monomeric RSV-F
# [11] = target: T1, RSV-F of RSV subtype A strain A2 (1540); assay: cell-based or functional assay; remark: listed apart in the source
# [12] = target: RSV-F S173Y of escape mutant RSV/A S173Y (respiratory syncytial virus subtype A, …, UniProt P03420 26-574); assay: cell-based or functional assay
# [13] = target: RSV-F T174K of escape mutant RSV/B T174K (respiratory syncytial virus subtype B, …); assay: cell-based or functional assay
# [14] = target: RSV-F S173T of escape mutant RSV/B S173T (respiratory syncytial virus subtype B, …); assay: cell-based or functional assay
# [15] = target: T5, RSV-F of RSV subtype B strain 1580 (respiratory syncytial virus subtype B, …); assay: cell-based or functional assay
# [16] = target: RSV-F S173T/T174K of escape mutant RSV/B S173T/T174K (respiratory syncytial virus subtype B, …); assay: cell-based or functional assay
# [17] = target: T1, RSV-F of RSV subtype A strain A2 (1540); assay: cell-based or functional assay; remark: listed apart in the source
# [18] = target: RSV-F of RSV subtype A clinical isolate A1998/3-2 (respiratory syncytial virus subtype A, …); assay: cell-based or functional assay
# [19] = target: RSV-F of RSV subtype A clinical isolate A1998/12-21 (respiratory syncytial virus subtype A, …); assay: cell-based or functional assay
# [20] = target: RSV-F of RSV subtype A clinical isolate A2000/3-4 (respiratory syncytial virus subtype A, …); assay: cell-based or functional assay
# [21] = target: RSV-F of RSV subtype A clinical isolate A2001/3-12 (respiratory syncytial virus subtype A, …); assay: cell-based or functional assay
# [22] = target: RSV-F of RSV subtype A clinical isolate A1997/12-35 (respiratory syncytial virus subtype A, …); assay: cell-based or functional assay
# [23] = target: RSV-F of RSV subtype A clinical isolate A2001/2-20 (respiratory syncytial virus subtype A, …); assay: cell-based or functional assay
# [24] = target: T2, RSV-F of RSV subtype B strain 9320; assay: cell-based or functional assay; remark: listed apart in the source
# [25] = target: T5, RSV-F of RSV subtype B strain 1580; assay: cell-based or functional assay; remark: listed apart in the source
binder,measurement,setting,value
"Control I (palivizumab sequence) (antibody, V domains shown, also called Control 1; SYNAGIS) VH: QVTLRESGPALVKPTQTLTLTCTFSGFSLSTSGMSVGWIRQPPGKALEWLADIWWDDKKDYNPSLKSRLTISKDTSKNQVVLKVTNMDPADTATYYCARSMITNWYFDVWGAGTTVTVSS VL: DIQMTQSPSTLSASVGDRVTITCKCQLSVGYMHWYQQKPGKAPKLLIYDTSKLASGVPSRFSGSGSGTEFTLTISSLQPDDFATYYCFQGSGYPFTFGGGTKLEIKR","IC50 (pM), RSV micro-neutralization, A/A2",[1],2080 pM
same,"IC50 (pM), RSV micro-neutralization, B/1A2",[2],223 pM
same,"IC50 (pM), RSV micro-neutralization, B/9320",[3],338 pM
same,"IC50 (pM), RSV micro-neutralization, B/1400",[4],113 pM
same,"IC50 (pM), RSV micro-neutralization, A/Long",[5],752 pM
same,"IC50 (pM), RSV micro-neutralization, B/18537",[6],1190 pM
same,"IC50 [pM] for RSV A2 Neutralization, Trial 1",[7],1820 pM
same,"IC50 [pM] for RSV A2 Neutralization, Trial 2",[7],950 pM
same,"IC50 [pM] for RSV A2 Neutralization, Trial 3",[7],290 pM
same,"IC50 [pM] for RSV A2 Neutralization, Trial 5",[7],160 pM
same,"IC50 [pM] for RSV A2 Neutralization, Trial 6",[7],500 pM
same,"IC50 [pM] for RSV A2 Neutralization, Trial 7",[7],250 pM
same,RSV-A2 (1540) Neutral. IC50 [pM],[8],360 pM
same,RSV-Long Neutral. IC50 [pM],[9],536 pM
same,Kd,[10],38.1 nM
same,t½,[10],4 min
same,"Neutralization IC50, pM (microneutralization, wt subtype A)",[11],1140 pM
same,"Neutralization IC50, pM (microneutralization, escape mutant)",[12],1710 pM
same,"Neutralization IC50, pM (microneutralization, escape mutant)",[13],640 pM
same,"Neutralization IC50, pM (microneutralization, escape mutant)",[14],1900 pM
same,"Neutralization IC50, pM (microneutralization, wt subtype B)",[15],1900 pM
same,"Neutralization IC50, pM (microneutralization, escape mutant)",[16],980 pM
same,"IC50 of blocking viral fusion (antibody added after viral attachment at 4 C, infection read by ELISA)",[17],1 nM
same,"IC50 (pM), RSV micro-neutralization, clinical isolate",[18],344 pM
same,"IC50 (pM), RSV micro-neutralization, clinical isolate",[19],580 pM
same,"IC50 (pM), RSV micro-neutralization, clinical isolate",[20],899 pM
same,"IC50 (pM), RSV micro-neutralization, clinical isolate",[21],1260 pM
same,"IC50 (pM), RSV micro-neutralization, clinical isolate",[22],478 pM
same,"IC50 (pM), RSV micro-neutralization, clinical isolate",[23],935 pM
same,RSV-9320 Neutral. IC50 [pM],[24],460 pM
same,RSV - 1580 Neutral. IC50 [pM],[25],375 pM
